Key:
[1] = test system: glucokinase (GCK); assay: Chemical cross-linking (dimethyl pimelimidate) with GCK; type: binding, human; settings: DMP, 50-fold molar excess, room temperature 1 h; 1:1 mixture, 40 μM protein; SDS-PAGE
Method: Protein samples were cross-linked with dimethyl pimelimidate (DMP). Aqueous stocks of cross-linkers were added to protein samples in a 50-fold molar excess and incubated at room temperature 1 h. Mixtures contained 20 μM protein (GCK or BAD) or 40 μM protein (1:1 mixture of glucokinase and BAD) in BAD buffer (0.1 M Tris, 0.1 M KCl, 0.5 M arginine, 2.5 mM CHAPS, 5 mM TCEP, 10% glycerol, pH 8.5). Reactions were immediately separated on SDS-PAGE and visualized with Coomassie blue staining.

[2] = Analytical ultracentrifugation sedimentation velocity (oligomerization, shape); type: physicochemical; settings: 20°C, 50,000 x g
Method: Sedimentation velocity experiments were conducted with an Optima XLI Ultracentrifuge (Beckman Coulter) using a four-hole rotor with three 420 μL samples in standard double-sector Epon centerpieces equipped with sapphire windows. Absorbance and interference data were collected simultaneously. Size-exclusion purified proteins were concentrated to OD280 nm = 0.3–1.0 prior to centrifugation. For complex formation, proteins were mixed in a 1:1 molar ratio in BAD buffer (0.1 M Tris, 0.1 M KCl, 0.5 M arginine, 2.5 mM CHAPS, 5 mM TCEP, 10% glycerol, pH 8.5) and incubated on ice 30 min prior to the start of the experiment. Experiments were carried out at 20°C and 50,000 x g. Data were analyzed with Ultrascan III software using a minimum of 70 scans per sample for analysis. Van Holde-Weischet analysis was performed to obtain S20,W values.

[3] = Proteolysis and aggregation of recombinant BAD produced under native conditions; type: physicochemical
Method: Under native conditions, cell pellet was resuspended and lysed in HEPES buffer (50 mM, pH7.6) containing NaCl (50 mM), imidazole (25 mM), glycerol (5%), and DTT (5 mM). PMSF, benzamidine, a protease inhibitor cocktail (Pierce), and BSA (0.1 mg/mL) were added to the lysis buffer in attempts to reduce protein degradation. Clarified lysate was applied to a HisTrap affinity column and following purification, purified BAD-GST was applied to a Superdex 200 10/30 HR size-exclusion column, at a flow rate of 0.02 mL/min.
Protein samples were excised from SDS-PAGE gels and exposed to trypsin digestion prior to analysis by mass spectroscopy. MALDI-TOF was performed on a Shimadzu Axima CFP MALDI-TOF in positive ion, reflectron mode. Linear trap quadripole (LTQ) Orbitrap MS was performed on a Thermo LTQ Orbitrap Velos HPLC-nESI-LIT-Orbitrap.
To facilitate biochemical characterization of the BAD:GCK complex, we sought a method to produce functional, recombinant human BAD. Several groups have used microbial hosts to produce BAD, however, functional characterization of the resulting protein was limited.

[4] = biological target: T1, Bcl-xL (Homo sapiens, UniProt Q07817, DEL45-84); assay: Isothermal titration calorimetry of BAD-GST with Bcl-xL; type: binding; settings: ITC, 25°C; Bcl-xL (100 μM) titrated into BAD-GST (10–18 μM), 4 μL injections, BAD buffer pH 8.5; average of two independent experiments
T1 construct: made in house
Method: Exon 1 of human bcl-xl lacking the C-terminal residues 189–233 was obtained from Stanley Korsmeyer (Addgene plasmid 8755) and site-directed mutagenesis was performed to create the Δ45–84, Δ210–233 variant. Bcl-xL was expressed and purified using a modified procedure described previously. Briefly, Bcl-xL was purified by nickel affinity chromatography and dialyzed against potassium phosphate buffer (20 mM, pH 7.4) containing NaCl (50 mM), EDTA (1 mM), and DTT (10 mM). Protein was applied to a Superdex 200 10/30 HR size-exclusion column, at a flow rate of 0.02 mL/min, to remove aggregate and oligomers prior to binding assays.
Isothermal titration calorimetry was performed at 25°C using a MicroCal VP-ITC (GE Healthcare) instrument. Bcl-xL (100 μM) in BAD buffer (0.1 M Tris, 0.1 M KCl, 0.5 M arginine, 2.5 mM CHAPS, 5 mM TCEP, 10% glycerol, pH 8.5) was titrated into the calorimeter cell containing size-exclusion chromatography purified BAD-GST (10–18 μM) in 4 μL injections. A 21-residue phosphorylated peptide containing the BH3 domain of BAD was synthesized and purified to >95% by Peptide2.0 (pBH3 = NLWAAQRYGRELRRM(p)SDKFVD). […] Data were analyzed using Origin software.

T1 sequence (Q07817 with tags, fused parts or gaps DEL45-84): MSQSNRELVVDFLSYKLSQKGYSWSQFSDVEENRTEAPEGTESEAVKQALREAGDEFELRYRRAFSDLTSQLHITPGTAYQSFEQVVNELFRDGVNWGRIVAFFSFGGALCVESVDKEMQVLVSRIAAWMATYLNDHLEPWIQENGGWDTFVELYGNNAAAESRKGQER

Kd [4]: 7 nM
B1: BAD-GST: recombinant human BAD with N-terminal hexahistidine tag and C-terminal GST fusion, TEV consensus sequence between (protein)
chain: MFQIPEFEPSEQEDSSSAERGLGPSPAGDGPSGSGKHHRQAPGLLWDASHQQEQPTSSSHHGGAGAVEIRSRHSSYPAGTEDDEGMGEEPSPFRGRSRSAPPNLWAAQRYGRELRRMSDEFVDSFKKGLPRPKSAGTATQMRQSSSWTRVFQSWWDRNLGRGSSAPSQ
modifications: left off: His6, N-terminal, state not stated | GST, C-terminal, kept
Complex with GCK by chemical cross-linking [1]: does not support the formation of a BAD-GST:GCK complex | Molecular weight from sedimentation velocity (oligomerization state) ([2]; predicted monomer BAD-GST 47 kDa, dimer): 98 kDa | Frictional ratio f/f0 ([2]; sedimentation velocity, unity = compact sphere): 3.9 | Proteolysis during recombinant production ([3]; MALDI-TOF, protease inhibitors failed to alleviate degradation): extensive C-terminal proteolysis | Aggregation when produced under native conditions ([3]; native conditions, E. coli): leads to aggregation of the protein
